From US20150344580A1 (published 2015)

Key:
[1] = target: T1, human chemokine receptor CCR7 (UniProt P32248 25-378); assay: FACS cell binding; after pH stress (3hr)
T1 chain: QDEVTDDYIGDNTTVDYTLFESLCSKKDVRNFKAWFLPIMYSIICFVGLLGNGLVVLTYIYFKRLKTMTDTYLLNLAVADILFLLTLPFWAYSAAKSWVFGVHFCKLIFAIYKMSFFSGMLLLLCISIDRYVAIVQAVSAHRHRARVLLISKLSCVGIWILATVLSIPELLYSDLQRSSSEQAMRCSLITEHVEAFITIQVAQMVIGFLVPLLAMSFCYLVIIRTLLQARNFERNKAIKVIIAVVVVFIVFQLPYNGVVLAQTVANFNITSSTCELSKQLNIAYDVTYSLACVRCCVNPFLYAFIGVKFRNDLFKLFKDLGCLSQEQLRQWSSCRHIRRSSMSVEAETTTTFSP

[2] = target: T1, human chemokine receptor CCR7; assay: FACS cell binding; after pH stress (2hr)
[3] = target: T1, human chemokine receptor CCR7; assay: FACS cell binding; after pH stress (3hr)
[4] = target: T1, human chemokine receptor CCR7; assay: FACS cell binding; after pH stress (2hr)
[5] = target: T1, human chemokine receptor CCR7; assay: FACS cell binding; after temperature stress

B1: MSM R735 in IgG4 format (antibody, V domains shown)
VH: EVQLLESGGGLVQPGGSLRLSCAASGFTFSNYNMHWVRQAPGKGLEWVSGIGPRRGRTYYADSVKGRFTISRDNSKNTLYLQMNSLRAEDTAVYYCARSYAYQYRGLDYWGQGTLVTVSS
VL: EIVLTQSPGTLSLSPGERATLSCRASQSVSSSYLAWYQQKPGQAPRLLIYGASSRATGIPDRFSGSGSGTDFTLTISRLEPEDFAVYYCQQGSPVTFGQGTKVEIKR
In the case of B1, the EC50 [1] is reported as about 7.6 nM and the EC50 [2] is reported as about 4.6 nM.

B2: MSM R707 in IgG4 format (antibody, V domains shown)
VH: EVQLLESGGGLVQPGGSLRLSCAASGFTFSNYAIHWVRQAPGKGLEWVSAITPRGGYTYYADSVKGRFTISRDNSKNTLYLQMNSLRAEDTAVYYCARGLTMMYTPGMDYWGQGTLVTVSS
VL: not shown
In the case of B2, the EC50 [3] is reported as about 9.1 nM, the EC50 [4] is reported as about 9.4 nM and the EC50 [5] is reported as about 6 nM.
